According to PMC5490006 (Nature Communications, 2017):

Key:
Mcm6 = biological target: T1, Mcm6 (budding yeast, UniProt P53091 1-1017); experiment: pull-down; Cdt1 FLAG held on M2 anti-FLAG agarose, Mcm6 fl or ΔC in solution; 10 μg of each protein, buffer B, 60 min at 4 °C; eluted with FLAG peptide; Coomassie; details: both partners purified
T1 construct: Mcm6, subunit of the budding yeast MCM (Mcm2-7), expressed as an individual subunit; called Mcm6 fl and the full-length protein; also called Mcm6 fl; full-length Mcm6; source: E. coli, purified

[1] = biological target: T2, Mcm6 within purified Cdt1–MCM complexes (budding yeast, UniProt P53091 1-1017); experiment: cross-linking; MCM-Cdt1 FLAG complex (200 μg) crosslinked with 20, 50 and 100 μM BS3; denatured with SDS; denaturing anti-FLAG immunoprecipitation; silver staining, bands identified by immunoblotting and mass spectrometry; details: both partners purified
T2 construct: Mcm6, yeast MCM subunit, as part of the Cdt1-MCM complex; source: purified Cdt1-MCM complex
T2 sequence (P53091 whole entry, one chain of several): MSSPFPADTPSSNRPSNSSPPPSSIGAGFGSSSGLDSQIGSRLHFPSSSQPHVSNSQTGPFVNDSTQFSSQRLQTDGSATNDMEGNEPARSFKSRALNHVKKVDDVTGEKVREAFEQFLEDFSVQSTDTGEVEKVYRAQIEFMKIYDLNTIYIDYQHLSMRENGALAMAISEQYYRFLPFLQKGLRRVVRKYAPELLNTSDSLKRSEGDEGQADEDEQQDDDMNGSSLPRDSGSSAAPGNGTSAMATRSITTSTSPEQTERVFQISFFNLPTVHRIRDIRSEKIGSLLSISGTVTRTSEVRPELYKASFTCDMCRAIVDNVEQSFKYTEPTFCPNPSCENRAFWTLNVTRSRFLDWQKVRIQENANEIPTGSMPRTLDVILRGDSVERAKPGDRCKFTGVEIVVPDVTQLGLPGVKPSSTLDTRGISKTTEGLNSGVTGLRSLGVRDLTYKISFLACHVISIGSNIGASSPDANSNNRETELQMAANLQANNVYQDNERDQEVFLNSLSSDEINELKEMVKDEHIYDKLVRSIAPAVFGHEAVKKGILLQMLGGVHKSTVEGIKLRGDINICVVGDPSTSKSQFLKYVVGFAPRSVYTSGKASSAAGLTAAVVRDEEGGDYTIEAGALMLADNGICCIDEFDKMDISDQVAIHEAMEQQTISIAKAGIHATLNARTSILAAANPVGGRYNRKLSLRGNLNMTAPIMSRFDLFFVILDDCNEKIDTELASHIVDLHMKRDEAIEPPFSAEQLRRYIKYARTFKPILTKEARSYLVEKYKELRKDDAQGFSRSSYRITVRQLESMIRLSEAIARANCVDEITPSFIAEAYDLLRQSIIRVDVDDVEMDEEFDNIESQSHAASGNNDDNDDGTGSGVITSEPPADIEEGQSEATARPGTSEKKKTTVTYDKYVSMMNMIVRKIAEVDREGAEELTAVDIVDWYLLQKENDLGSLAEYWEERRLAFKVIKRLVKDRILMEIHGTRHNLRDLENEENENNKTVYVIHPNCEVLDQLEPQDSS

T1 sequence (P53091 whole entry): as the sequence (P53091 whole entry, one chain of several) above

binding result (Mcm6): binds
binding result [1]: binds
B1: Cdt1 FLAG (natural protein, S. cerevisiae, UniProt P47112 1-604, looked up)
chain: MSGTANSRRKEVLRVPVIDLNRVSDEEQLLPVVRAILLQHDTFLLKNYANKAVLDALLAGLTTKDLPDTSQGFDANFTGTLPLEDDVWLEQYIFDTDPQLRFDRKCRNESLCSIYSRLFKLGLFFAQLCVKSVVSSAELQDCISTSHYATKLTRYFNDNGSTHDGADAGATVLPTGDDFQYLFERDYVTFLPTGVLTIFPCAKAIRYKPSTMATTDNSWVSIDEPDCLLFHTGTLLARWSQGMHTTSPLQIDPRANIVSLTIWPPLTTPISSKGEGTIANHLLEQQIKAFPKVAQQYYPRELSILRLQDAMKFVKELFTVCETVLSLNALSRSTGVPPELHVLLPQISSMMKRKIVQDDILKLLTIWSDAYVVELNSRGELTMNLPKRDNLTTLTNKSRTLAFVERAESWYQQVIASKDEIMTDVPAFKINKRRSSSNSKTVLSSKVQTKSSNANALNNSRYLANSKENFMYKEKMPDSQANLMDRLRERERRSAALLSQRQKRYQQFLAMKMTQVFDILFSLTRGQPYTETYLSSLIVDSLQDSNNPIGTKEASEILAGLQGILPMDISVHQVDGGLKVYRWNSLDKNRFSKLLQIHKSKQQD
notes: Cdt1, S. cerevisiae, FLAG-tagged; also called FLAG-tagged Cdt1; source: purified; alone for the pull-downs, within the MCM-Cdt1 FLAG complex for the crosslinking
